# Source: the DeepSol protein solubility set
# Experiment: soluble on expression in E. coli; label from the status in PepcDB or PDB records
row,Sequence,soluble on expression in E. coli
1,MSVGQTLAEKILSHKVGRPVRAGELVVVEVDQVMVVDSIAGSFFKRLEYLEATPRYPERVSIVIDHVAPAANLEVAKAQKEIREWGKRHGIRVFDVGRGVCHQVLIEEGLAQPGWVVVGSDSHSTTYGAVGAFGTGMGATDIALAAASGRTWLRVPESVKVVFRGRLPKGVTAKDAALEMVRLLTAEGATYMAVEIHLLDGAEALTRGERMTLANLTVEAGAKAGLVVPSGEILEMYRVPDWLYPDPDARYAKEVEIDLSALTPRVSVPFYVDNVHEVAQVKGKRVDQVFIGTCTNGRIEDLRAAAEVLKGRKVAPWVRLLVVPASSQVLEEAARDGTLLTLLEAGATIGTPGCGPCMGRHMGVLAPGEVCVSTSNRNFRGRMGAPDAEIYLASPRVAAASAVAGYLTTPEELEEEEVHA,soluble
2,MKVEKFKVLLYLKKSEPDKNGKAPIMGRITLNRTMAQFSCKLSCTPELWNARESRLNGKSRKAVETNEKIERLLLAVHSAFNSLMERKKDFDAAAVRDMFQGNAGIQMTLLKLLDRHNGEMKARVGVDRAPTTLSTYLFTYRTLSEFIKAKFKVSDLAFGQLNEQFIRDYQDFILMEKGHAVDTLRGYLAILKKICRIAYKEGHSEKYHFCHFKLPKQKESTPKALSRENFEKLRDLEIPEKRRSHVITRDLFLFACYTGTAYADVVSITRENLFTDEENNLWLKYRRKKTNYLGRVKLLPEALVLIEKYRDDARMTLFPPQDYHTLRANMKSLRLMAGLSQDLVYHTARHSFASLITLEEGVPIETISKMLGHSNIKTTQIYARVTPKRLFEDMDRFIEATRDLKLIL,not soluble
3,MGSDKIHHHHHHMIAEPFLFRSEGGFIRIPIWGHIPLSAPLKKILAHPSFLRLKGIRQLSFAQQVYPGANHTRFEHSIGVYHLMKMILQRMVSNPLALELQDERLQFDDETCRTLLATCLLHDIGHYPHAHVLEEITPAGDSSAVFAHHESLTGQFLNEEHRDTPSIAAILHDDWQVNPDTVTEIIAGKTAHRLGKLVSGTLDPDKMDYLMRDAHHCNIPYGSIDIERLIESFVPDPERQRLAITEKGIAPLESLLFAKYMMMRNVYWHHTSRTFSTMLRRLLQDVADESALPMETLRELFYFNSDDRVLFELERAIRGLGLPAAELLDAILERRVYKRAMTIRPYHEPSMEIDPVWFAYNTSHRRRKEKELEICAMLAGKTGKRLAGHEVLIDAPPSKDVFDYSDFRELRIWPTKSEHRHLVQPTDSNGYVRFDDFRESVFGSDFILSFEQYTKKFRLLCRHDLVDTLSGLEEAVVEILRR,not soluble
4,GPGSMQPYGMSTSRTNRRPLVASRGGPNAPQRNYAMVTGPVDPSTSLIRYELPFSPADPKRSVKLRRRFGEPIEESVVDPNVRVVLDSFIPPRAWYDDDGVLWVQHASPKPASRTDTVETHEKLRRRLRETGAKRTGICPIRSLLLAECFLEVIRQVTVECWERGLVLLKIHAERVAAQTAHRELFESRVGYAFRLALKGEKDTSRVQQDLGKLKKRMEELAEEEKTLRQQCDEASARGEEEMLIVGKQHSDEVAAIKKEGILKRNQLEHMISMPSTP,soluble
5,MAFVTTAEVCDANQELIRSGQLRALQPIFQIYGRRQIFSGPVVTVKVFEDNGLIRQFIEEKGNGRVLVVDGGGSQRCAILGGNPVVQAQNNGWAGIVVNGCIRDVDEINGCDIGVRALASHPIKASKKGLGEQRVPVNIAGTRICDGEWLYADTDGILVSQIELSV,soluble
6,MGHHHHHHSHMYFFSKHPEASIQAVFSDAQMHIWALEGLSHLVAASFTEDRFGVVQTTLPAILNTLLTLQEAVDKYFKLPHASSKPPRISGSLVDTSYKTLRFAFRASLKTAIYRITTTFGEHLNAVQASAEHQKRLQQFLEFKE,soluble
7,GMAEYEDRYWTSSDGLRLHFRAYEGDISRPPVLCLPGLTRNARDFEDLATRLAGDWRVLCPEMRGRGDSDYAKDPMTYQPMQYLQDLEALLAQEGIERFVAIGTSLGGLLTMLLAAANPARIAAAVLNDVGPEVSPEGLERIRGYVGQGRNFETWMHAARALQESSGDVYPDWDITQWLRYAKRIMVLGSSGRIAFDYDMKIAEPFEAPVGATPQVDMWPLFDALATRPLLVLRGETSDILSAQTAAKMASRPGVELVTLPRIGHAPTLDEPESIAAIGRLLERV,soluble
8,MSTINFANREINFKIVYYGPGLSGKTTNLKWIYSKVPEGRKGEMVSLATEDERTLFFDFLPLDIGEVKGFKTRFHLYTVPGQVFYNASRKLILRGVDGIVFVADSAPNRLRANAESMRNMRENLAEYGLTLDDVPIVIQVNKRDLPDALPVEMVRAVVDPEGKFPVLEAVATEGKGVFETLKEVSRLVLARVAGGS,soluble
9,MLKGKVALVTGASRGIGRAIAKRLANDGALVAIHYGNRKEEAEETVYEIQSNGGSAFSIGANLESLHGVEALYSSLDNELQNRTGSTKFDILINNAGIGPGAFIEETTEQFFDRMVSVNAKAPFFIIQQALSRLRDNSRIINISSAATRISLPDFIAYSMTKGAINTMTFTLAKQLGARGITVNAILPGFVKTDMNAELLSDPMMKQYATTISAFNRLGEVEDIADTAAFLASPDSRWVTGQLIDVSGGSCL,not soluble
10,MGFDFLGFTVRQFPVGKYHSGKSSSGKLLGYKTLITPSKAKLKIHAQKIGKLIDEHKAVPQSDLIAHLNPVIRGWTNYYSCVVSKRIFNQADTTLFSQLKAWAEHRHPNKSSRWSCQKYWQTVGSDNWVFKPHNQKIRLLKHRETRLEHHHHHH,soluble
11,MSYKIVIDSCGELLDEWKKDPRFESVALTLSVGGENIIDDENFDQASFLKKVADCPECPKSACPSPERYMRAFDCDADHVYAVTLSAELSGSYNSAVLGKSLLQEENPGKQIYVFNSKSASVGQSLIAMKIQECEEAGYSFEKVIETVEAYIADQHTFFVLDNLETLRKNGRLSKVKALVASALKIKPVMGSTDEGAICQLDQARGMNKALVKMAQNIVDKTKDSENKILAISHCNCRERAVLLKNALEERMPVKHIVILDTAGVSSMYANDGGVIVAV,not soluble
12,MITIKFDLNRYSCSWGAGGAFGGNRGLRPIPPEKGIFPLDHLHECDAVFFNKRFFL,not soluble
13,MSLLDFSAHALPYASQRSPVHARRGMVATSQPQAAQVGLEILRRGGNAIDAAIATAAALTVVEPTGCGIGGDAFALVWTRGRLHGLDASGRAPGLLDRERVRAAGHERMPLYGWTPVTVPGCPAAWGELSRRFGKLPFEQLLRPAIELARDGFPVSPVIARLWQSGLDKFRAALPQRPELRAWFDEFLIDGRAPRAGEVFRQPGQADTLDELARSQCESFYRGELARAIVGHAECSGGYLRAEDLAGYQAKWVEPISLNYRGYDVWEIPPSGQGLIALMTLNILKGFEFGERDCARTWHRQLEAMKLAYVDGLHYISQPQSMRVSVEELLHEDYAASRRALIGERALDPSPGQPRPGGTVYLACGDEEGNLVSFIQSNYHGFGSGVVVPGTGIALQNRGAEFSLDPDHVNCLEPGKQTFHTIIPGFLSKDGVPLGPFGVMGAYMQPQGHVQMVMNLVDFGLNPQAALDAPRWQWLGGLRVGIEHAAPRALAAELAQRGHQVEIAYDSTSYGRGQIVLRDPASGVLCGGTEPRTDSQIAVWEGHHHHHH,not soluble
14,VRDVLDNQEFGFTGLHVAAAVADTLGTGDTLFAAASNSIRDLSLVGMPFDGVDTFSPRGVAGIDGSVAQAIGTSLAVQSRHPDEIRAPRTVALLGDLSFLHDIGGLLIGPDEPRPENLTIVVSNDNGGGIFELLETGADGLRPNFERAFGTPHDASIADLCAGYGIEHQVVDNLQDLIIALVDTTEVSGFTIIEASTVRDTRRAQQQALMDTVH,not soluble
15,MSLSITVLADIHLDERYIETGSQEVFCRENQDRPEAKYSLPGCDSSESLVDAALASLQKEGPYNVMVVLGDIGPHSSESPEMTQRAIKAIADKLRRLFINKPPEQEMIILPVIGNNDVFPTYAVPTEDGDPQLLFVADQFKDLMTTEGYRQFQRRGYYSVPLSKHRVTFLVINANYYSVRHRELGEDPADQFKWVENQMIEAKAKGYRVILISHIPFGVNVYDESEALHSQYTDRIRSILRRYASTVLACLYGHYHSAYPLVLSAGEEPLVPMFICPSIAPSNYNNPGYYVFHISPLHEVDYDHYALNIEAANMQHREMHNSTELASFDCLYRFSQRYRPWLGLRALPTAQNIAHLYEHMLNDDFVWYQVRAATTSMLSERRLDFLQMAVDKAFMDAYNLSNEGHHHHHH,soluble
16,MSRDARWKALLELLVERGRLDVEEAATELEVSAATIRRDFDRLAEQQMLVRTRGGAVVHGVSYELPLRYKTARRASEKQRVAQAVAALVAPGEAVGLTGGTTTTEVARALAVRADLASGTPALTVVTNALNIANELAVRPQFKIVVTGGVARAQSYELIGPLADGVLGQVTLDVAVLGVVAFDVAHGAAAHDEAEAAINRLLCERAERVVVAADSSKLGRRAFARICATESVDTLVTDGAADPELVGRFEEAGVRVVTALEHHHHHH,not soluble
17,MTDEKKKGVIFDIQRWSLHDGPGIRTNVFFKGCPLSCQWCSNPESQEFCREPALFGDKCIHCLSCVEHCPHGAIHTSDPWIRLDYEICRGRCSRGAEQENAFCCTKACYAQALTVMGEVMTADMVLEEVMRDEGIYRSSGGGVTMTGGEPLAQPEFLLELLTAAKERGLHTVMESSMFAEWDKIQACLPYLDVLFMDMKLLPEEKHVKYTGVSNQIILDNIRRAAAYARTHRLELAVRTPVIPGINDTSGDIAAMADWIKKHLPGVERYELLPYHRLGRGKYRNIGREYQLGDIVPPSKEKMKELEAVVSKLGLRRE,not soluble
18,MSLLRALPEVAEPEGVDFIEIATGRLGETIRVLHQLGFRLGGHHCSKQDYQVWTQGDVRIVVCDRGVTGAPTTISAMGFDTPDPEAAHARAELLRAQTIDRPHIEGEVDLKGVYAPDGVELFFAGPSPDGMPEWLPEFGVEKQEAGLIEAIDHVNFAQPWQHFDEAVLFYTALMALETVREDEFPSPIGLVRNQVMRSPNDAVRLLLSVAPEDGEQGDFLNAAYPEHIALATADIVAVAERARKRGLDFLPVPENYYDDVQARFDLPQEFLDTLKENHLLYDRDENGEFLHFYTRTLGTLFFEVVERRGGFAGWGETNAPVRLAAQYREVRDLERGIPEGHHHHHH,soluble
19,MGSDKIHHHHHHMSTLLQIKNLRTYFFTDEGVVKAVDGVSFEIEEGRTLGVVGESGCGKSVTARSIIKLLSTAGRIVSGEILYNMDGQMVDLVKFSKEEIRKVRGRHIAMIFQEPMAAFSPVYTIGDQITEGMIYHFGITKQEARERAVELLRRVGIPKPEKMIDSYPFEYSGGMRQRAMIAMALSCNPRLLIADEPTTALDVTIQAQVLDLLKDLQQEYKMAIMMITHNMGVVAEMADHVVVMYLGRVVESAPVEELFYNPKHPYTSLLLRSIPVVGKRVERLEVIEGDVPDPRNMPKGCRFHPRCPYMMKGICDEREPVEVEVGPEHRVSCFLYGGEKDGAS,not soluble
20,MAHHHHHHMAAFKPYRFIIFDQQIKNNQFYKSIITQLNLSLLCKEIYLNESFSCYQYEKLFLKKLVYYSFNNLGNNLKAREIKCSGHSSVDTGEHKLQQLINNVNKNENKNININKNINKNINKNVNINNADHNKCSDNSSDYHNFYENECMNNLNLINDLGDRHKNHPLYNVMMKNKKKELTTQSDINKLVSFHIYDNKNEKTFKNILSLNDTYNIDHMNILCLNNYKPIFNMLENYSINNKRISIYYPFYIINDDKNNKPQSNLYTKVADYCYNIVSDILPLNYKNINLSDIIKAIIINTELCQNEGNERMEVLKFMDIMDIIGKN,soluble
21,MGSDKIHHHHHHMRTDMTIEQNKNRRSAASGCAIHCHDCSMGTLCIPFTLNANELDQLDDIIERKKPIQKGEQIFKSGDPLKSLFAIRSGTIKSYTITEQGDEQITGFHLAGDVIGFDGIHAQSHQSFAQALETSMVCEIPFNILDELSGTMPKLRQQIMRLMSNEIMSDQEMILLLSKKNAEERLAAFISNLANRFGNRGFSAKEFRLTMTRGDIGNYLGLTVETISRLLGRFQKSGLIEVKGKYIIIVDHHELNLLAGNARIAR,not soluble
